From patent US20070275898

Molecular target: β subunit of DNA polymerase III of Escherichia coli, P0A988
Sequence (P0A988 whole entry): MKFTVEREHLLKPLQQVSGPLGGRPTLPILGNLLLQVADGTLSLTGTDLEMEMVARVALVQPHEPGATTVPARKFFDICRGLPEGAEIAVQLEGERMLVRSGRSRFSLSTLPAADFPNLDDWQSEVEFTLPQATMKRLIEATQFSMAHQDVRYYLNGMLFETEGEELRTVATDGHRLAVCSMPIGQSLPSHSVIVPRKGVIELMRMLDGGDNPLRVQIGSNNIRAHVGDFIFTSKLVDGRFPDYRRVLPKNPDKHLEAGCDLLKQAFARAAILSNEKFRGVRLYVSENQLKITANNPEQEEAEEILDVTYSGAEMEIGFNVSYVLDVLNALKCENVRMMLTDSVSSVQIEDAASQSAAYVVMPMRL

B1: Pol IV DNA polymerase of Escherichia coli (protein)
chain: MRKIIHVDMDCFFAAVEMRDNPALRDIPIAIGGSRERRGVISTANYPARKFGVRSAMPTGMALKLCPHLTLLPGRFDAYKEASNHIREIFSRYTSRIEPLSLDEAYLDVTDSVHCHGSATLIAQEIRQTIFNELQLTASAGVAPVKFLAKIASDMNKPNGQFVITPAEVPAFLQTLPLAKIPGVGKVSAAKLEAMGLRTCGDVQKCDLVMLLKRFGKFGRILWERSQGIDERDVNSERLRKSVGVERTMAEDIHHWSECEAIIERLYPELERRLAKVKPDLLIARQGVKLKFDDFQQTTQEHVWPRLNKADLIATARKTWDERRGGRGVRLVGLHVTLLDPQMERQLVLGL
growth rate (OD 600 nm) of E. coli on IPTG-induced expression: a clear growth inhibition was observed for the culture expressing the wild type Pol IV protein compared to the one expressing the mutant protein | in vitro polymerase activity of Pol IV: the in vitro activity of Pol IV is greatly enhanced by the presence of the β subunit loaded onto a primer/template DNA substrate
